# From patent US10441663B2, “Methods for treating cancer” (Bicycle Therapeutics Limited, priority 2016, dated 2019)
# *1 amine or outer side, *2 acyl side, *3 side chain or, on linkers, in order; H or OH if unused. Where a SMILES comes first, the peptide text is derived from it. Bridges are numbered along the chain shown (N, C = ends). [ ]: non-standard residue; d: D form. The star is where a group is joined. ξ: configuration not given here. X2 = COc1cc2cc(c1Cl)N(C)C(=O)C[C@H](OC(=O)[C@H](C)N(C)C(=O)CCSC1CC(=O)N(CC3CCC(C(=O)*)CC3)C1=O)[C@@]1(C)O[C@H]1[C@H](C)[C@@H]1C[C@@](O)(NC(=O)O1)[C@H](OC)/C=C/C=C(\C)C2; 1Nal = N[C@@H](Cc1cccc2ccccc12)C(=O)O; TBMB = c1c(C[*:1])cc(C[*:3])cc1C[*:2]; Tle = CC(C)(C)[C@H](N)C(=O)O; ξA = CC(N)C(=O)O; Sar = CNCC(=O)O
# What was measured:
# [1] = tested on: HT1080 cell line; experiment: In vitro cytotoxicity, ATP endpoint assay after 72 hours incubation; format: cell-based; conditions: ATP endpoint, HT-1080 cells
# Protocol: To evaluate the in vitro cytotoxicity of BT1718 and BT1721 in an HT1080 cell line using an ATP endpoint assay after 72 hours incubation.
# Cells were seeded in 96 well plates (75 μl/well, HT1080=7500−15000 cell/well) and incubated overnight at 37° C.+5% CO2.
# The day after cell seeding, serial dilutions (1:5) of BT1718 and BT1721 were prepared in DMSO and diluted 1:71 in cell culture media to give 4× final concentrations. Twenty five μl/well was added to the cells (2 μM or 5 μM top final concentration of BT1718 and 2 μM or 5 μM top final concentration of BT1721, <0.6% final DMSO).
# Cells were 30-50% confluent upon dosing. Control wells containing 5 μM final concentration of staurosporine (positive control), lysis buffer (1% NP40, 20 mM Tris pH8, 137 mM NaCl, 10% glycerol, 2 mM EDTA, 1 mM Na Orthovanadate, 10 μg/ml leupeptin, 10 μg/ml aprotinin) positive control or media (negative control), were also included. Plates were sealed with gas permeable seals and incubated at 37° C.+5% CO2 for 72 hours. No wash steps were performed.
# After a total of 72 hours after dosing, ATPLite reagent (Perkin Elmer) was equilibrated to room temperate and reconstituted in the supplied buffer as per the manufacturer's instructions. One hundred μl 1× detection reagent was added per well. Plates were sealed, protected from light and shaken gently for 20 minutes to ensure complete cell lysis before luminescence was read using a BMG Pherastar FS plate reader. […] Data was analysed using GraphPad Prism. Non-linear regression fit was used to calculate a relative IC50 for each toxic agent: Y=Bottom+(Top−Bottom)/(1+10^((Log Ic50−X)*HillSlope)) where the IC50 is defined as 50% of the total cell kill achieved at the top concentration of toxin.
# [2] = tested on: EBC-1 xenograft; experiment: Efficacy of BT1721 in EBC-1 xenograft model (Example 6); format: in vivo, Mus Musculus; conditions: for Tumor Size: Mean ± SEM
# Protocol: The objective of this study was to evaluate the anti-tumor efficacy of BT1721 in EBC-1 xenograft model in female BALB/c nude mice.
# The EBC-1 tumor cells were maintained in vitro as a monolayer culture in RPMI1640 medium supplemented with 10% heat inactivated fetal bovine serum at 37° C. in an atmosphere of 5% CO2 in air. The tumor cells were routinely subcultured twice weekly by trypsin-EDTA treatment. The cells growing in an exponential growth phase were harvested and counted for tumor inoculation.
# Each mouse was inoculated subcutaneously at the right flank with EBC-1 tumor cells (10×10^6) in 0.2 ml of PBS for tumor development. The treatments were started on Day 7 after the tumor inoculation when the average tumor size reached approximately 152 mm^3. Each group consisted of 3 tumor-bearing mice. The testing articles were administrated to the mice according to the predetermined regimen as shown in the experimental design (Table 43).
# All the procedures related to animal handling, care and the treatment in the study were performed according to the guidelines of the Association for Assessment and Accreditation of Laboratory Animal Care (AAALAC). At the time of routine monitoring, the animals were daily checked for any effects of tumor growth and treatments on normal behavior such as mobility, food and water consumption (by looking only), body weight gain/loss (body weights were measured every day), eye/hair matting and any other abnormal effect as stated in the protocol. Death and observed clinical signs were recorded on the basis of the numbers of animals within each subset.
# The major endpoint was to see if the tumor growth could be delayed or mice could be cured. Tumor size was measured three times weekly in two dimensions using a caliper, and the volume was expressed in mm^3 using the formula: V=0.5 a×b^2 where a and b are the long and short diameters of the tumor, respectively. The tumor size was then used for calculations of T/C value. The T/C value (in percent) is an indication of antitumor effectiveness; T and C are the mean volumes of the treated and control groups, respectively, on a given day.
# TGI was calculated for each group using the formula: TGI (%)=[1−(Ti−T0)/(Vi−V0)]×100; Ti is the average tumor volume of a treatment group on a given day, T0 is the average tumor volume of the treatment group on the day of treatment start, Vi is the average tumor volume of the vehicle control group on the same day with Ti, and V0 is the average tumor volume of the vehicle group on the day of treatment start.
# Summary statistics, including mean and the standard error of the mean (SEM), are provided for the tumor volume of each group at each time point.
# Statistical analysis of difference in tumor volume among the groups was conducted on the data obtained at the best therapeutic time point after the final dose.
# A one-way ANOVA was performed to compare tumor volume among groups, and when a significant F-statistics (a ratio of treatment variance to the error variance) was obtained, comparisons between groups were carried out with Games-Howell test. All data were analyzed using Prism. P<0.05 was considered to be statistically significant.
smiles,measurement,setting,value
COc1cc2cc(c1Cl)N(C)C(=O)C[C@H](OC(=O)[C@H](C)N(C)C(=O)CCSC1CC(=O)N(CC3CCC(C(=O)NCCCC[C@H](NC(C)=O)C(=O)NCC(=O)N(C)CC(=O)N(C)CC(=O)N(C)CC(=O)N(C)CC(=O)N(C)CC(=O)N(C)CC(=O)N(C)CC(=O)N(C)CC(=O)N(C)CC(=O)N(C)CC(=O)NC(C)C(=O)N[C@H]4CSCc5cc6cc(c5)CSC[C@H](NC(=O)[C@@H](C)NC(=O)[C@H](Cc5cccc7ccccc57)NC(=O)[C@H](CCC(=O)O)NC(=O)[C@H](CC(N)=O)NC(=O)[C@@H](C)NC4=O)C(=O)N[C@@H](CCC(=O)O)C(=O)N[C@@H](CC(=O)O)C(=O)N[C@@H](Cc4ccccc4)C(=O)N[C@@H](Cc4ccc(O)cc4)C(=O)N[C@@H](CC(=O)O)C(=O)N[C@@H](C(C)(C)C)C(=O)N[C@H](C(N)=O)CSC6)CC3)C1=O)[C@@]1(C)O[C@H]1[C@H](C)[C@@H]1C[C@@](O)(NC(=O)O1)[C@H](OC)/C=C/C=C(\C)C2 (stereo partly shown) [BT1721] (Ac-K(X2)G[Sar][Sar][Sar][Sar][Sar][Sar][Sar][Sar][Sar][Sar][ξA]C[dA]NE[1Nal][dA]CEDFYD[Tle]C-NH2; linker 14-20-27 via TBMB),IC50,[1],8.9 nM
same,effect on tumor growth,"[2]; 1 mg/kg, 3 mg/kg and 10 mg/kg, day 14",didn't show any inhibitory effect on tumor growth
same,tumor volume trace over time,"[2]; 1 mg/kg, tiw, day 0",164 ± 31 mm^3
same,tumor volume trace over time,"[2]; 1 mg/kg, tiw, day 2",291 ± 57 mm^3
same,tumor volume trace over time,"[2]; 1 mg/kg, tiw, day 4",367 ± 68 mm^3
same,tumor volume trace over time,"[2]; 1 mg/kg, tiw, day 7",640 ± 39 mm^3
same,tumor volume trace over time,"[2]; 1 mg/kg, tiw, day 9",784 ± 40 mm^3
same,tumor volume trace over time,"[2]; 1 mg/kg, tiw, day 11",874 ± 50 mm^3
same,T/C,"[2]; 1 mg/kg, tiw, day 14",22%
same,TGI,"[2]; 1 mg/kg, tiw, day 14",82%
same,tumor volume trace over time,"[2]; 1 mg/kg, tiw, day 14",981 ± 47 mm^3
same,Tumor Size,"[2]; 1 mg/kg, tiw, day 14",981 ± 47 mm^3
same,tumor volume trace over time,"[2]; 3 mg/kg, tiw, day 0",142 ± 18 mm^3
same,tumor volume trace over time,"[2]; 3 mg/kg, tiw, day 2",207 ± 60 mm^3
same,tumor volume trace over time,"[2]; 3 mg/kg, tiw, day 4",310 ± 61 mm^3
same,tumor volume trace over time,"[2]; 3 mg/kg, tiw, day 7",531 ± 116 mm^3
same,tumor volume trace over time,"[2]; 3 mg/kg, tiw, day 9",708 ± 132 mm^3
same,tumor volume trace over time,"[2]; 3 mg/kg, tiw, day 11",761 ± 147 mm^3
same,T/C,"[2]; 3 mg/kg, tiw, day 14",26%
same,TGI,"[2]; 3 mg/kg, tiw, day 14",77%
same,tumor volume trace over time,"[2]; 3 mg/kg, tiw, day 14",920 ± 210 mm^3
same,Tumor Size,"[2]; 3 mg/kg, tiw, day 14",920 ± 210 mm^3
same,effect on tumor growth,[2]; 10 mg/kg tiw,did not show any inhibitory effect on tumor growth
same,tumor volume trace over time,"[2]; 10 mg/kg, tiw, day 0",160 ± 25 mm^3
same,tumor volume trace over time,"[2]; 10 mg/kg, tiw, day 2",249 ± 82 mm^3
same,tumor volume trace over time,"[2]; 10 mg/kg, tiw, day 4",407 ± 85 mm^3
same,tumor volume trace over time,"[2]; 10 mg/kg, tiw, day 7",632 ± 149 mm^3
same,tumor volume trace over time,"[2]; 10 mg/kg, tiw, day 9",735 ± 201 mm^3
same,tumor volume trace over time,"[2]; 10 mg/kg, tiw, day 11",858 ± 72 mm^3
same,T/C,"[2]; 10 mg/kg, tiw, day 14",6%
same,TGI,"[2]; 10 mg/kg, tiw, day 14",96%
same,tumor volume trace over time,"[2]; 10 mg/kg, tiw, day 14",1142 ± 147 mm^3
same,Tumor Size,"[2]; 10 mg/kg, tiw, day 14",1142 ± 147 mm^3
same,Body Weight,"[2]; 1 mpk, tiw, day 0",22.2 ± 0.7 g
same,Body Weight (% Change),"[2]; 1 mpk, tiw, day 0",0.0%
same,Body Weight,"[2]; 1 mpk, tiw, day 2",22.0 ± 0.5 g
same,Body Weight (% Change),"[2]; 1 mpk, tiw, day 2",−1.1 ± 0.7%
same,Body Weight,"[2]; 1 mpk, tiw, day 4",22.4 ± 0.8 g
same,Body Weight (% Change),"[2]; 1 mpk, tiw, day 4",0.8 ± 2.3%
same,Body Weight,"[2]; 1 mpk, tiw, day 7",22.5 ± 0.9 g
same,Body Weight (% Change),"[2]; 1 mpk, tiw, day 7",1.3 ± 1.4%
same,Body Weight,"[2]; 1 mpk, tiw, day 9",23.2 ± 0.8 g
same,Body Weight (% Change),"[2]; 1 mpk, tiw, day 9",4.4 ± 0.8%
same,Body Weight,"[2]; 1 mpk, tiw, day 11",22.9 ± 1.0 g
same,Body Weight (% Change),"[2]; 1 mpk, tiw, day 11",3.1 ± 1.7%
same,Body Weight,"[2]; 1 mpk, tiw, day 14",23.3 ± 1.1 g
same,Body Weight (% Change),"[2]; 1 mpk, tiw, day 14",4.6 ± 2.0%
same,Body Weight,"[2]; 3 mpk tiw, day 0",22.9 ± 0.4 g
same,Body Weight (% Change),"[2]; 3 mpk tiw, day 0",0.0%
same,Body Weight,"[2]; 3 mpk tiw, day 2",22.3 ± 0.6 g
same,Body Weight (% Change),"[2]; 3 mpk tiw, day 2",−2.8 ± 1.3%
same,Body Weight,"[2]; 3 mpk tiw, day 4",22.3 ± 0.8 g
same,Body Weight (% Change),"[2]; 3 mpk tiw, day 4",−2.8 ± 1.9%
same,Body Weight,"[2]; 3 mpk tiw, day 7",23.1 ± 0.7 g
same,Body Weight (% Change),"[2]; 3 mpk tiw, day 7",0.8 ± 1.8%
same,Body Weight,"[2]; 3 mpk tiw, day 9",23.9 ± 1.0 g
same,Body Weight (% Change),"[2]; 3 mpk tiw, day 9",4.0 ± 2.8%
same,Body Weight,"[2]; 3 mpk tiw, day 11",24.0 ± 1.0 g
same,Body Weight (% Change),"[2]; 3 mpk tiw, day 11",4.7 ± 2.7%
same,Body Weight,"[2]; 3 mpk tiw, day 14",24.6 ± 1.0 g
same,Body Weight (% Change),"[2]; 3 mpk tiw, day 14",7.2 ± 2.9%
same,Body Weight,"[2]; 10 mpk tiw, day 0",23.2 ± 0.5 g
same,Body Weight (% Change),"[2]; 10 mpk tiw, day 0",0.0%
same,Body Weight,"[2]; 10 mpk tiw, day 2",23.2 ± 0.3 g
same,Body Weight (% Change),"[2]; 10 mpk tiw, day 2",0.0 ± 1.5%
same,Body Weight,"[2]; 10 mpk tiw, day 4",23.2 ± 0.4 g
same,Body Weight (% Change),"[2]; 10 mpk tiw, day 4",−0.3 ± 0.5%
same,Body Weight,"[2]; 10 mpk tiw, day 7",23.9 ± 0.5 g
same,Body Weight (% Change),"[2]; 10 mpk tiw, day 7",2.8 ± 0.6%
same,Body Weight,"[2]; 10 mpk tiw, day 9",24.4 ± 0.4 g
same,Body Weight (% Change),"[2]; 10 mpk tiw, day 9",5.1 ± 0.6%
same,Body Weight,"[2]; 10 mpk tiw, day 11",24.4 ± 0.6 g
same,Body Weight (% Change),"[2]; 10 mpk tiw, day 11",5.0 ± 0.3%
same,Body Weight,"[2]; 10 mpk tiw, day 14",25.3 ± 0.5 g
same,Body Weight (% Change),"[2]; 10 mpk tiw, day 14",8.8 ± 0.7%
same,body weight effect,"[2]; mouse, in vivo",maintained their bodyweight well
